Assay results from publication PMC9376891 (Nature Communications, 2022).

These binders were tested against T1, Rae1(31-368)-Nup98(157-213) heterodimer (human, UniProt P78406 31-368; P52948 157-213) (assay: ITC). Details: both partners purified.
T1 construct: also called Rae1-Nup98; Rae1-Nup98 complex
T1 sequence (P78406 31-368, chain 1 of 2): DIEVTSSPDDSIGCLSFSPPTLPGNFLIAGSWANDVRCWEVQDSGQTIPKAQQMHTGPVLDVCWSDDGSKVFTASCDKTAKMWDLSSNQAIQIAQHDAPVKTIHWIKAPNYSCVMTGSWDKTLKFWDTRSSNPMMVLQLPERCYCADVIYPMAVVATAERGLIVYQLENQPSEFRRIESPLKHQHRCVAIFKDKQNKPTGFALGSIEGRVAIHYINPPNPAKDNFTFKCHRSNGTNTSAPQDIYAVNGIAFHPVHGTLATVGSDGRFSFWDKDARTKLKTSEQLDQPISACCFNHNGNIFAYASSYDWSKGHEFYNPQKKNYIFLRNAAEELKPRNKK
T1 sequence (P52948 157-213, chain 2 of 2): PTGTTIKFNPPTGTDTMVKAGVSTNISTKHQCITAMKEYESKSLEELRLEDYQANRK

For YSQLDEEQPMEAD (source: synthetic peptide) [SARS-CoV-2 ORF6 C3 peptide I60A], the “fold reduction of binding affinity against SARS-CoV-2 ORF6 C3” value was ~17.5 fold.

With YSQLDEEQPLEID (source: synthetic peptide) [SARS-CoV-2 ORF6 C3 peptide M58L] the Kd was 10400 nM.

In the case of YSQLDEEEPMEID (source: synthetic peptide) [SARS-CoV-2 ORF6 C3 peptide Q56E], the “fold increase of binding affinity against SARS-CoV-2 ORF6 C3” value is reported as ~6 fold.

Each binder was assayed against T2, Rae1(31-368)-Nup98(157-213) heterodimer (human, UniProt P78406 31-368; P52948 157-213) (assay: ITC). Details: both partners purified.
T2 construct: also called Rae1-Nup98; Rae1-Nup98 complex
T2 sequence (P78406 31-368, chain 1 of 2): as the sequence (P78406 31-368, chain 1 of 2) above
T2 sequence (P52948 157-213, chain 2 of 2): as the sequence (P52948 157-213, chain 2 of 2) above

First: YSQLAEEQPMEID (source: synthetic peptide) [SARS-CoV-2 ORF6-D53A]
Second: YSQLDEEEPMEID (source: synthetic peptide) [SARS-CoV-2 ORF6-Q56E]
The Ka of the first is 24-fold lower: 863000 M⁻¹ for the first, 2.08e+07 M⁻¹ for the second.

YSQLDAEQPMEID (source: synthetic peptide) [SARS-CoV-2 ORF6-E54A] and YSQLDEAQPMEID (source: synthetic peptide) [SARS-CoV-2 ORF6-E55A] are within 1.5-fold of each other in Ka: 1.72e+06 M⁻¹ for the first, 1.75e+06 M⁻¹ for the second.

Going from YSQLAEEQPMEID (source: synthetic peptide) [SARS-CoV-2 ORF6-D53A] to YSQLDEEEPMEID (source: synthetic peptide) [SARS-CoV-2 ORF6-Q56E], the Kd falls from 1150 nM to 40 nM (29-fold). The second binds more tightly here.

YSQLDAEQPMEID (source: synthetic peptide) [SARS-CoV-2 ORF6-E54A] and YSQLDEAQPMEID (source: synthetic peptide) [SARS-CoV-2 ORF6-E55A] are within 1.5-fold of each other in Kd: 580 nM for the first, 570 nM for the second.

Compared with YSQLAEEQPMEID (source: synthetic peptide) [SARS-CoV-2 ORF6-D53A], YSQLDEEEPMEID (source: synthetic peptide) [SARS-CoV-2 ORF6-Q56E] is higher in “stoichiometry N” value: 0.71 for the first, 0.781 for the second.

First: YSQLDAEQPMEID (source: synthetic peptide) [SARS-CoV-2 ORF6-E54A]
Second: YSQLDEAQPMEID (source: synthetic peptide) [SARS-CoV-2 ORF6-E55A]
The “stoichiometry N” value of the first is lower: 0.59 for the first, 0.65 for the second.

Biological target: T2, Rae1(31-368)-Nup98(157-213) heterodimer
Assay: ITC
Details: both partners purified
Remark: another data set of the same source

Going from YSQLDEEQPMEAD (source: synthetic peptide) [SARS-CoV-2 ORF6-I60A] to YSQLDEEQPMEIA (source: synthetic peptide) [SARS-CoV-2 ORF6-D61A], the Ka rises from 238000 M⁻¹ to 361000 M⁻¹ (1.5-fold).

Compared with YSQLDEEQPLEID (source: synthetic peptide) [SARS-CoV-2 ORF6-M58L], YSQLDEEQAMEID (source: synthetic peptide) [SARS-CoV-2 ORF6-P57A] is 12-fold higher in Ka: 96400 M⁻¹ for the first, 1.12e+06 M⁻¹ for the second.

For YSQLDEEQPMAID (source: synthetic peptide) [SARS-CoV-2 ORF6-E59A], the Ka was 606000 M⁻¹.

Compared with YSQLDEEQPMEAD (source: synthetic peptide) [SARS-CoV-2 ORF6-I60A], YSQLDEEQPMEIA (source: synthetic peptide) [SARS-CoV-2 ORF6-D61A] is 1.5-fold lower in Kd: 4200 nM for the first, 2770 nM for the second. The second binds more tightly here.

Compared with YSQLDEEQAMEID (source: synthetic peptide) [SARS-CoV-2 ORF6-P57A], YSQLDEEQPMAID (source: synthetic peptide) [SARS-CoV-2 ORF6-E59A] is 1.9-fold higher in Kd: 890 nM for the first, 1650 nM for the second.

Compared with YSQLDEEQPMEAD (source: synthetic peptide) [SARS-CoV-2 ORF6-I60A], YSQLDEEQPMEIA (source: synthetic peptide) [SARS-CoV-2 ORF6-D61A] is higher in “stoichiometry N” value: 0.68 for the first, 0.76 for the second.

Compared with YSQLDEEQPLEID (source: synthetic peptide) [SARS-CoV-2 ORF6-M58L], YSQLDEEQAMEID (source: synthetic peptide) [SARS-CoV-2 ORF6-P57A] is higher in “stoichiometry N” value: 1 for the first, 2.34 for the second.

With YSQLDEEQPMAID (source: synthetic peptide) [SARS-CoV-2 ORF6-E59A] the “stoichiometry N” value was 0.68.
